The results in this text go back to ChEMBL document CHEMBL1212722, “Designer enzymes for glycosphingolipid synthesis by directed evolution” (Nat Chem Biol, 2009).

Data set [1] can be described thus: Inhibition of Rhodococcus sp. M777 Endoglycoceramidase 2 containing wild type sequence E351S.
Substrate in data set [2]: CCCCCCCCCCCCC/C=C/[C@@H](O)[C@@H](N)CO
Put plainly: (§1) Activity of Rhodococcus sp. M777 Endoglycoceramidase 2 A153T D314Y R177H mutant.

Substrate in data set [3]: CC(=O)N[C@H]1[C@H](O[C@@H]2[C@H](O[C@]3(C(=O)O)C[C@H](O)[C@@H](NC(C)=O)[C@H]([C@@H](O)[C@@H](O)CO)O3)[C@@H](O)[C@H](O[C@H]3[C@H](O)[C@@H](O)[C@@H](F)O[C@@H]3CO)O[C@@H]2CO)O[C@H](CO)[C@H](O)[C@@H]1O[C@@H]1O[C@H](CO)[C@H](O)[C@H](O)[C@H]1O
The data set is described as §1.

Substrate in data set [4]: CCCCCCCCCCCCC/C=C/[C@@H](O)[C@@H](N)CO
The data set can be described thus: (§2) Ratio of Kcat to Km of Activity of Rhodococcus sp. M777 Endoglycoceramidase 2 A153T D314Y R177H mutant.

Substrate in data set [5]: CC(=O)N[C@H]1[C@H](O[C@@H]2[C@H](O[C@]3(C(=O)O)C[C@H](O)[C@@H](NC(C)=O)[C@H]([C@@H](O)[C@@H](O)CO)O3)[C@@H](O)[C@H](O[C@H]3[C@H](O)[C@@H](O)[C@@H](F)O[C@@H]3CO)O[C@@H]2CO)O[C@H](CO)[C@H](O)[C@@H]1O[C@@H]1O[C@H](CO)[C@H](O)[C@H](O)[C@H]1O
Described as §2.

Turning to `CCCCCCCCCCCCCC[C@@H](O)[C@@H](O)[C@@H](N)CO` [PHYTOSPHINGOSINE], the Ki in data set [1] is 850 µM.

B1: Endoglycoceramidase II (Rhodococcus sp), A0ACD6B832 A153T,D314Y,R177H (protein)
chain: MRRTRLVSLIVTGSLVFGGGVAAAQSSLAASGSGSGSGTALTPSYLKDDDGRSLILRGFNTASSAKSAPDGMPQFTEADLAREYADMGTNFVRFLISWRSVEPAPGVYDQQYLDRVEDRVGWYAERGYKVMLDMHQDVYSGAITPEGNSGNGTGAIGNGAPAWATYMDGLPVEPQPHWELYYIQPGVMRAFDNFWNTTGKHPELVEHYAKAWRAVADRFADNDAVVAYDLMNEPFGGSLQGPAFEAGPLAAMYQRTTDAIRQVDQDTWVCVAPQAIGVNQGLPSGLTKIDDPRAGQQRIAYCPHLYPLPLDIGYGHEGLARTLTDVTIDAWRANTAHTARVLGDVPIILGEFGLDTTLPGARDYIERVYGTAREMGAGVSYWSSDPGPWGPYLPDGTQTLLVDTLNKPYPRAVAGTPTEWSSTSDRLQLTIEPDAAITAPTEIYLPEAGFPGDVHVEGADVVGWDRQSRLLTVRTPADSGNVTVTVTPAA
For B1, the values for the Km in data set [2] and in data set [3] were 490 µM and 800 µM, respectively. Moreover, the kcat stood at 0.24 s⁻¹ in data set [2] and 0.28 s⁻¹ in data set [3]. Moreover, the kcat/Km in data set [4] came out at 490 M⁻¹ s⁻¹; in data set [5], 350 M⁻¹ s⁻¹.
